# According to US20240358704A1, “COMBINED ADMINISTRATION” (Hoffmann-La Roche Inc., priority 2021, published 2024):
# How the values were obtained:
# [1] = system: delta7 mice; assay: Body weight and muscle weights at PND52 in pharmacological mouse model of SMA; assay type: in vivo
# Text: The mouse model of SMA (pharmacological model) that has been used in the preclinical trial herein is the delta7 mice treated with a sub-maximal dose of the SMN-upregulating compound SMN-C1 as described in Naryshkin et al, Science 345, 688-693, 2014. […] The advantage of this model is that it has a more severe phenotype than existing mild models but lives into adulthood, which enables testing SMA treatments after disease onset. […] (1) a monotherapy, (2) as a combination therapy with an SMN-upregulating compound administered at the onset of disease, and (3) in a mild model of SMA was don. Dosing of the myostatin inhibitor began at PND24 and continued for 28 days until PND52. In all of these models, GYM329 was administrated once per week at 3 mg/kg (4 subcutaneous injections). A cohort of wild type (WT) littermates treated with the vehicle was included as a reference group. At the study's conclusion, in vivo muscle force frequency, muscle weight, muscle histopathology, bone morphometry, and voluntary running were assessed.
# The pharmacological model was generated by treating delta7 mice [FVB.Cg-Tg(SMN2*delta7)4299Ahmb Tg(SMN2)89Ahmb, homozygous knockout mice completely lacking mouse Smnl] with a dose of an SMN-upregulating compound, SMN-C1. For CH1 and CH2, the mice were given a suboptimal dose of SMN-C1 (0.1 mg/kg daily) for the duration of the study. For CH3 and CH4, mice were given a suboptimal dose of SMN-C1 (0.1 mg/kg daily) from PND1-23 and switched to a higher dose (3 mg/kg daily) from PND24-52. For CH5 and CH6, mice were treated with a higher dose of SMN-C1 (3 mg/kg daily) for the duration of the study. Wild type (WT) mice [FVB.Cg-Tg(SMN2*delta7)4299Ahmb Tg(SMN2)89Ahmb, homozygous for the mouse Smnl gene] were used as a reference.
# Statistical analysis was performed using SigmaPlot v11. Muscle performance data were analyzed using a two-way repeated measures ANOVA. Post-hoc analysis for pairwise comparisons was performed with a Holm-Sidak test. Body weights, muscle weights, muscle fiber typing data, and cortical and trabecular bone data were analyzed using a one-way ANOVA, with post-hoc analysis performed with a Holm-Sidak test. Data
# Body weights were taken daily for SMA mice and weekly for WT mice.
# [2] = system: delta7 mice; assay: In vivo plantarflexor muscle function (maximum torque, force frequency response); conditions: PND52
# Description: Hind limb muscle performance was measured in vivo with a 305C muscle lever system (Aurora Scientific Inc., Aurora, CAN). Mice were anesthetized via inhalation (˜4-5% isoflurane, or to effect) and placed on a thermostatically controlled table where anesthesia was maintained via nose-cone (˜2% isoflurane, or to effect). Hair was removed from the lower leg by application of depilatory cream for 3 minutes, followed by thorough rinsing
# with physiological buffer. The leg was then wiped with a 5% povidone-iodine solution followed by 70% isopropyl alcohol. The knee was isolated using a pin through the tibial head and the foot firmly fixed to a footplate on the motor shaft. Contractions were elicited in the gastrocnemius by percutaneous electrical stimulation of the sciatic nerve.
# (§1) On both muscles, a force frequency response was performed. Briefly, a series of stimulations were performed at increasing frequency of stimulation (0.2 ms pulse, 500 ms train duration): 1, 10, 20, 40, 60, 80, 100, and 150 Hz, followed by a final stimulation at 1 Hz.
# (§2) Muscle function data were analyzed using Aurora Scientific 615A Dynamic Muscle Analysis Software Suite in high-throughput mode. The software automatically determines a baseline, a maximum, and a minimum. The baseline is then subtracted from the maximum to give the maximal generated force. Each data file was manually inspected to ensure that cursors and fits were assigned properly and corrected when necessary. Data were then grouped and means and standard error of the mean (SEM) calculated. In the plantarflexor muscle group, results were presented as torque, expressed in the unit mN·m, since the assay measures the force produced by the gastrocnemius rotating about the ankle. Force was directly measured in the masseter, expressed in the unit gram.
# [3] = system: delta7 mice; assay: In vivo masseter muscle function (maximum force, force frequency response); conditions: GYM329 3 mg/kg SC weekly, PND52
# Text: To assess masseter function, the mouse was anesthetized via inhalation (˜4-5% isoflurane, or to effect) and placed on a thermostatically controlled table where anesthesia was maintained via nose-cone (˜2% isoflurane, or to effect). The mouse was placed supine with custom designed restraint to ensure accessibility of the jaw for testing. The lever arm of the 305C muscle lever system (Aurora Scientific Inc., Aurora, CAN) was positioned in the diastema of the mandible and a suture was run under the middle lower incisors of the mouse and attached to the lever arm. The masseter was contracted by electrical stimulation using surface electrodes.
# as §1, §2
# [4] = system: delta7 mice; assay: Plantarflexor histology: muscle fiber typing and cross-sectional area; assay type: in vivo; conditions: GYM329 3 mg/kg SC weekly
# Description: Plantarflexor (gastrocnemius, plantaris, and soleus) samples frozen for histology were embedded in cryomatrix on a soft cork surface to enable easy sectioning. Briefly, frozen and embedded tissues were mounted in a cryotome and serially sectioned (10 μm thickness) perpendicular to the fiber axis. Multiple slices (5-10) were taken at different portions of the muscle. The slices were then fixed in ice-cold paraformaldehyde and stored at −80° C. until further use.
# For cross-sectional area determination, fixed sections from the mid-belly of the muscle were stained with wheat germ agglutinin (WGA) conjugated to a fluorophore to visualize cell membranes. Sections were digitized using fluorescent microscopy, cell boundaries were traced using predictive software, and cross-sectional area was determined via unbiased automated measurements. For muscle fiber type determination, histological slices were taken from the mid-belly of the soleus and the gastrocnemius muscle. The fixed tissue sections were then blocked using SuperBlock PBS blocking buffer (Thermo Fisher) for 1 h at room temperature. The slide was then washed with PBS and covered with a primary antibody against either MyHC-I, MyHC-IIa, or MyHC-IIb (1:20 dilution; Developmental Studies Hybridoma Database) and incubated overnight at 4° C. The slide was then washed with PBS and the appropriate secondary antibody added for 1 h at room temperature. The slide was washed again in PBS, covered in mounting solution, and a coverslip used to seal the tissue section for fluorescence microscopy measures. Fluorescently-labeled tissue sections were digitized using a fluorescence microscope (Nikon). Images were then analyzed for number of cells using standard counting software.
# [5] = system: delta7 mice; assay: Bone microCT of the tibia (cortical and trabecular parameters); assay type: in vivo; conditions: GYM329 3 mg/kg SC weekly
# Description: Bone microCT scans were performed in tibias collected at PND52. There was no effect of treatment on cortical or trabecular parameters (FIG. 7 & FIG. 8).
# [6] = Tolerability study in healthy adult subjects; assay type: in vivo, human; conditions: at AUC of 385 μg×d/mL
# [7] = delta 7 mice + high dose SMN-C1 (3 mg/kg PND1-52), GYM329 3 mg/kg SC weekly, PND52, vs SMA Vehicle
# [8] = delta 7 mice + low to high dose SMN-C1 (0.1 mg/kg PND1-23, 3 mg/kg PND24-52)
# [9] = delta 7 mice + high dose SMN-C1 (3 mg/kg PND1-52)
# [10] = delta 7 mice + high dose SMN-C1 (3 mg/kg PND1-52), vs SMA Vehicle
# [11] = delta 7 mice + low dose SMN-C1 (0.1 mg/kg PND1-52)
# [12] = PND52, delta 7 mice + low dose SMN-C1 (0.1 mg/kg PND1-52)
molecule,measurement,setting,value
"GYM329: anti-myostatin antibody binding latent myostatin; CDRs SEQ ID 1-6, VH SEQ ID 7, VL SEQ ID 8, heavy chain SEQ ID 9, light chain SEQ ID 10 (antibody, CDR sequences) heavy: QVQLVESGGGLVQPGGSLRLSCAVSGIDLSHDDISWVRQAPGKGLEWVSIISYAGSTYYASWAKGRLTISKDTSKNQVVLTMTNMDPVDTATYYCARGVPAYSHGGDLWGQGTLVTVSSASTKGPSVFPLAPSSKSTSGGTAALGCLVKDYFPEPVTVSWNSGALTSGVHTFPAVLQSSGLYSLSSVVTVPSSSLGTQTYICNVNHKPSNTKVDKKVEPKSCDKTHTCPPCPAPEYLGGDSVFLFPPKPKDVLMISRTPEVTCVVIDVSHEDPEVKFNWYVDGVEVHNAKTKPREEQYNSTYRVVSVLPVLHRDWLNGKEYKCKVSNKALPKPIEKTISKAKGQRREPQVYTLPPSREEMTKNQVSLTCLVKGFYPSDIAVEWESNGQPENNYKTTPPVLDSDGSFFLYSKLTVDKSRWQQGNVFSCSVLHEALHAHTTRKELSLSP light: DIVMTQSPATLSLSPGERATLSCTTSQSVYHENWLSWFQQKPGQPPKLLIYWASTLAYGVPSRFSGSGSGTDFTLTISSLQPEDAATYYCAGGYGGGRYAFGQGTKVEIKRTVAAPSVFIFPPSDEQLKSGTASVVCLLNNFYPREAKVQWKVDNALQSGNSQESVTEQDSKDSTYSLSSTLTLSKADYEKHKVYACEVTHQGLSSPVTKSFNRGEC",Body weights,[1]; [7],significantly increased
same,Gastrocnemius weight,[1]; [7],significantly increased
same,Soleus weight,[1]; [7],significantly increased
same,TA weight,[1]; [7],significantly increased
same,Body weight,"[1]; delta 7 mice + low dose SMN-C1 (0.1 mg/kg IP QD PND1-52), GYM329 3 mg/kg SC weekly from PND24, vs SMA Vehicle",not significantly increased
same,Gastrocnemius weight,"[1]; delta 7 mice + low dose SMN-C1 (0.1 mg/kg PND1-52), GYM329 3 mg/kg SC weekly, PND52, p=0.061",trend for increased
same,Muscle weights,"[1]; delta 7 mice + low dose SMN-C1 (0.1 mg/kg PND1-52), GYM329 3 mg/kg SC weekly, PND52, vs SMA Vehicle",did not significantly affect
same,Muscle weights,"[1]; delta 7 mice + low to high dose SMN-C1 (0.1 mg/kg PND1-23, 3 mg/kg PND24-52), GYM329 3 mg/kg SC weekly, PND52",not affected
same,Plantarflexor muscle function (maximum torque),"[2]; delta 7 mice + high dose SMN-C1 (3 mg/kg PND1-52), GYM329 3 mg/kg SC weekly",not significantly affected
same,Plantarflexor muscle function (maximum torque),"[2]; delta 7 mice + low dose SMN-C1 (0.1 mg/kg PND1-52), 3 mg/kg SC weekly, main effect p=0.078 vs SMA Vehicle",trend for improvement
same,Plantarflexor muscle function (maximum torque),"[2]; delta 7 mice + low to high dose SMN-C1 (0.1 mg/kg PND1-23, 3 mg/kg PND24-52), GYM329 3 mg/kg SC weekly",no effect
same,Masseter maximum force,"[3]; at 80, 100, and 150 Hz, delta 7 mice + high dose SMN-C1 (3 mg/kg PND1-52), vs SMA Vehicle",increased
same,Masseter function,"[3]; delta 7 mice + high dose SMN-C1 (3 mg/kg PND1-52), main effect p=0.048 vs SMA Vehicle",improved
same,Masseter function (maximum force),"[3]; delta 7 mice + low dose SMN-C1 (0.1 mg/kg PND1-52), vs SMA Vehicle",no effect
same,Masseter function (maximum force),[3]; [8],no effect
same,Muscle fiber types,[4]; [9],no significant differences
same,Mean fiber cross-sectional area,[4]; [10],increased
same,Type IIB fiber cross-sectional area,[4]; [10],increased
same,Muscle fiber cross-sectional area,[4]; [11],no differences
same,Muscle fiber type percentages,[4]; [11],no differences
same,Muscle fiber cross-sectional area,[4]; [8],not affected
same,Muscle fiber type composition,[4]; [8],not affected
same,Cortical bone parameters,[5]; [12],no effect
same,Trabecular bone parameters,[5]; [12],no effect
same,Bone volume (trabecular),[5]; [9],improved
same,Cortical cross-sectional thickness,[5]; [9],improved
same,Mean total cross-sectional bone area (cortical),[5]; [9],improved
same,Trabecular number,[5]; [9],improved
same,Trabecular separation,[5]; [9],improved
same,Trabecular thickness,[5]; [9],improved
same,Cross-sectional thickness in cortical bone,[5]; [8],improved
same,Mean total cross-sectional bone area in cortical bone,[5]; [8],improved
same,Trabecular bone parameters,[5]; [8],no effect
same,Tolerability,[6],well-tolerated
